Legend:
Experiment in all cases: two-hybrid; mammalian two-hybrid (Checkmate, Promega) in Vero cells; pACT and pBIND fusions in both orientations with the pG5luc reporter; firefly/Renilla luciferase at 48 h as fold of the control with empty pACT or pBIND
Settings in all cases: partners not purified
[1] = target: T1, ACBD3 (mammalian two-hybrid fusion) (UniProt Q9H3P7 1-528)
T1 construct: ACBD3, Golgi protein; two-hybrid construct not described; Two-hybrid construct not described in the methods; source: Vero cells, transfected, mammalian two-hybrid fusion
T1 sequence (looked up): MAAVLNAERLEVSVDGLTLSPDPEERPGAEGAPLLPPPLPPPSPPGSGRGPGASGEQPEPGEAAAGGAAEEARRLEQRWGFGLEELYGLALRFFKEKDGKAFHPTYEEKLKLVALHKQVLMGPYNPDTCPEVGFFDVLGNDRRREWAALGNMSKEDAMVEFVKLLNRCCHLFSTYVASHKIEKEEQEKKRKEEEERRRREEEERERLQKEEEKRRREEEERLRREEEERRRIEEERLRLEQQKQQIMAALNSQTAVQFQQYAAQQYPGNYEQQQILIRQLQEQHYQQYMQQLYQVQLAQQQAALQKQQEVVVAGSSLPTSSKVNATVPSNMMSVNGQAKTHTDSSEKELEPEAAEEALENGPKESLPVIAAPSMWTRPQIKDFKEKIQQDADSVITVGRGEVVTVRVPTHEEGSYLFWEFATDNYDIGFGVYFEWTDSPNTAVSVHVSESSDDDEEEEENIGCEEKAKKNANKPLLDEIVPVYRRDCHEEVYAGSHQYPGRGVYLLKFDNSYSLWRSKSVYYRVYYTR

[2] = target: T2, PI4KB (mammalian two-hybrid fusion) (UniProt Q9UBF8 1-816)
T2 construct: PI4KB, Golgi protein; two-hybrid construct not described; Two-hybrid construct not described in the methods; also called phosphatidylinositol 4-kinase IIIβ; source: Vero cells, transfected, mammalian two-hybrid fusion
T2 sequence (Q9UBF8 whole entry, the tested form may be a part): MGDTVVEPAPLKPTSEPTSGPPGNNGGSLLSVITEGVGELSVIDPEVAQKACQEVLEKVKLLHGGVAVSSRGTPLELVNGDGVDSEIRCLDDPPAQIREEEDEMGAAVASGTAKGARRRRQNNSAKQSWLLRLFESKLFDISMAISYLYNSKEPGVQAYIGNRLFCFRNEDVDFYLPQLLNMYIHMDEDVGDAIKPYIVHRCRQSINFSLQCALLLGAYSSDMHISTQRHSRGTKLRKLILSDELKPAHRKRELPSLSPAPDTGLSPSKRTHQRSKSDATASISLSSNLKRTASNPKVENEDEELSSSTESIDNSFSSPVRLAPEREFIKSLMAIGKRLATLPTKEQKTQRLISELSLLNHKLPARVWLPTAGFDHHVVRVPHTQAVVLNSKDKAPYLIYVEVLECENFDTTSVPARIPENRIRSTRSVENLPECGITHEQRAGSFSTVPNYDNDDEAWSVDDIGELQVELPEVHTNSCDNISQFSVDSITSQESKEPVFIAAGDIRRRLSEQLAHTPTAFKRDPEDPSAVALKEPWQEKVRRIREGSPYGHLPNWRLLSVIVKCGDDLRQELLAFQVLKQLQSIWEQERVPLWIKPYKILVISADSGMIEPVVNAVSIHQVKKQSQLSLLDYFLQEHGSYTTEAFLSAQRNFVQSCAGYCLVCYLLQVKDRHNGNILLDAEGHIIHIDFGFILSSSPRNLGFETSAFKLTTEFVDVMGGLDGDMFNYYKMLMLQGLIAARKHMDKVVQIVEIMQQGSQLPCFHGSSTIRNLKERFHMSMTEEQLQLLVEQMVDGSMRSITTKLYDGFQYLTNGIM

[3] = target: T3, OSBP (mammalian two-hybrid fusion) (UniProt P22059 1-807)
T3 construct: two-hybrid construct not described; Two-hybrid construct not described in the methods; source: Vero cells, transfected, mammalian two-hybrid fusion
T3 sequence (looked up): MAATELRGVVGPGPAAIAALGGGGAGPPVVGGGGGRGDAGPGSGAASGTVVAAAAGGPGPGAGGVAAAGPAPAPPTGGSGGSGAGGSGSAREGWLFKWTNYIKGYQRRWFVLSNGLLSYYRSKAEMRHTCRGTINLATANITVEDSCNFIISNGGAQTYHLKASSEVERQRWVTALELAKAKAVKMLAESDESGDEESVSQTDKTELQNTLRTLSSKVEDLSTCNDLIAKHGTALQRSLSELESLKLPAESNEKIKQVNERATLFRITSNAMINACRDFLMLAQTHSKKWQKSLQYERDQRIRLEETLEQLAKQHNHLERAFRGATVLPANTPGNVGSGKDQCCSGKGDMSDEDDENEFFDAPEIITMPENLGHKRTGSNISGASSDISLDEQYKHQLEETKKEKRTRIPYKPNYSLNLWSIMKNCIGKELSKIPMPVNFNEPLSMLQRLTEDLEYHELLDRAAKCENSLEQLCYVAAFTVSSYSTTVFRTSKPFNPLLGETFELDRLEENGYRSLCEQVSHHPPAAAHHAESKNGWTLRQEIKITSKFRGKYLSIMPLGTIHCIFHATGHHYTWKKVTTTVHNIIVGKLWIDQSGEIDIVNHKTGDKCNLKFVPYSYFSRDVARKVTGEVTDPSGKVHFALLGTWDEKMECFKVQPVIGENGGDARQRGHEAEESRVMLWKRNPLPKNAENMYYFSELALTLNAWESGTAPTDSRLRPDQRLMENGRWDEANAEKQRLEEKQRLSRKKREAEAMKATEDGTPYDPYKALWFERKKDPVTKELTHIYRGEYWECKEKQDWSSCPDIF

B1: IFITM1 (mammalian two-hybrid fusion) (natural protein, human, UniProt P13164 1-125, looked up)
chain: MHKEEHEVAVLGPPPSTILPRSTVINIHSETSVPDHVVWSLFNTLFLNWCCLGFIAFAYSVKSRDRKMVGDVTGAQAYASTAKCLNIWALILGILMTIGFILLLVFGSVTVYHIMLQIIQEKRGY
notes: IFITM1, human; coding region amplified by PCR from an OriGene cDNA clone; one fusion partner at a time; also called interferon-induced transmembrane protein 1; pACT-IFITM1; source: Vero cells, transfected, mammalian two-hybrid fusion
fold increase in luciferase activity [1]: 84.2 fold | fold increase in luciferase activity [2]: 8.2 fold | fold increase in luciferase activity [3]: 7.8 fold

From paper PMC10256215, “IFITM1 enhances nonenveloped viral RNA replication by facilitating cholesterol transport to the Golgi” (PLOS Pathogens, 2023)
